Source: patent US20090304687A1, “METHODS OF USING CD40 BINDING AGENTS” (Seattle Genetics , Inc., priority 2005, published 2009)
Where a chain is given by its changes, count along the chain named. In names and notes the source's numbering stands. Several values for one entry are separate records, joined by “and”; a condition that tells them apart may be missing. Identical values can stand only once. Entries after “also recorded” stand apart in the source; their conditions may differ. Like-named read-outs stand apart in the source and are kept apart here.

Legend:
[1] = tested on: Ramos cells; assay: In vitro drug combinations with SGN-40, 3H-thymidine proliferation, Combination Index; format: cell-based; conditions: for Combination Index at ED50 / Combination Index at ED75 / Combination Index at ED90: drug with cross-linked SGN-40 (30.0-0.0586 ng/ml), Ramos cells 2% FBS, 72 hours
Method: Cells were treated for 72 hours, then labeled with ^3H-thymidine for 4 hours to measure proliferation rates. Dose response curves of drugs alone and in combination with the humanized CD40 antibody were reduced in Excel, and Combination Indices (CI) determined using the Calcusyn analysis package (Biosoft). […] CI values equal to 1.0 indicate an additive integration. For these studies, n=3 unless otherwise indicated.

[2] = tested on: Ramos Burkitt's lymphoma cells; assay: Combination therapy with CHOP or prednisone, subcutaneous Ramos Burkitt's lymphoma in SCID mice; format: in vivo, C.B.-17 SCID mice
Method: To model localized lymphoma, 5×10^6 Ramos Burkitt's lymphoma cells were implanted subcutaneously into the right flank of C.B.-17 SCID mice (Harlan, Indianapolis, Ind.). Therapy was initiated when the mean tumor size in each group of five animals was 100 mm^3. CHOP was used for a single course, alone or in combination with humanized CD40 antibody (hu sgn-0; SGN-40), using the following dose schedule: cyclophosphamide at 30 mg/kg, i.v. qld x 1; doxorubicin at 2.475 mg/kg, i.v. qld x 1; vincristine at 0.375 mg/kg, i.v. qld x 1; and prednisone at 0.15 mg/kg, p.o. q1d x 5. The CD40 antibody was administered i.p. at 4 mg/kg q4d x 4 when used alone or in combination with prednisone or CHOP. Tumor size was determined using the formula (L×W^2)/2.
To compare the effect of SGN-40 treatment alone or in combination with CHOP or prednisone, SCID mice were subcutaneously implanted with Ramos cells, and dosed with SGN-40 alone or in combination with CHOP as described above. In addition, prednisone steroid was administered alone (0.15 mg/kg, qld x 5 po) or in combination with SGN-40 (4.0 mg/kg, q4d x 4 ip).

[3] = molecular target: CD40 immobilized on microassay plates (UniProt P25942 21-193, limits assumed); assay: serially diluted antibody on CD40 immobilized on microassay plates
CD40 immobilized on microassay plates, sequence (P25942 21-193 limits assumed): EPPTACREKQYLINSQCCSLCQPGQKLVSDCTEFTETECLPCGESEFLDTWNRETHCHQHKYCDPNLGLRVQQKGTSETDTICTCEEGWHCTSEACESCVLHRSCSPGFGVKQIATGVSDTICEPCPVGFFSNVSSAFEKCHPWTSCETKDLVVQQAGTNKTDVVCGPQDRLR
Method: (§1) Antibodies constructed using these variant light and heavy chain variable domains were analyzed for binding activity. Each antibody was diluted to equivalent concentrations, and then serially diluted. The diluted antibodies were assayed for binding to CD40 immobilized on microassay plates.

[4] = molecular target: CD40 (Homo sapiens, UniProt P25942); assay: Binding of variant antibodies to CD40 immobilized on microassay plates; design: Binding Data 1 / Binding Data 2 / Binding Data 3: unit not given here; conditions: for Binding Data 1 / Binding Data 2: affinity binding data, serially diluted antibody on immobilized CD40; for binding activity compared with the parent murine antibody: in words
CD40, sequence (P25942 21-277): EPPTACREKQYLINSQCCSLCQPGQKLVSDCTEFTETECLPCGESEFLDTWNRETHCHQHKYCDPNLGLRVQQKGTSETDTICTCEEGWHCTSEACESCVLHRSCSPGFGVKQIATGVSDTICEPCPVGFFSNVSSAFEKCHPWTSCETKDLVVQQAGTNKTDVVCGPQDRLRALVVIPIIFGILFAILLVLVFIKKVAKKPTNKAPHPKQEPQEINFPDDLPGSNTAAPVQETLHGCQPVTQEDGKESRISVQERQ
Method: as §1, with “plates. Affinity binding data for the variant antibodies are shown below in Table 3.” for “plates.”

[5] = drug with cross-linked SGN-40, Ramos cells

## Nc1ccn([C@@H]2O[C@H](CO)[C@@H](O)[C@@H]2O)c(=O)n1 [Ara-C]
[1]
  Combination Index at ED50: 0.95
  Combination Index at ED75: 0.90
  Combination Index at ED90: 0.90
[1]; [5]
  Effect (of combination with SGN-40): Additive

## N.N.[Cl][Pt][Cl] [Cisplatin]
[1]
  Combination Index at ED50: 1.04
  Combination Index at ED75: 0.89
  Combination Index at ED90: 0.78
[1]; [5]
  Effect (of combination with SGN-40): Additive → Syn.
[1]; drug with cross-linked SGN-40, Ramos cells, listed as cisplatin
  Effect (of combination with SGN-40): additive

## COc1cc([C@@H]2c3cc4c(cc3[C@@H](O[C@@H]3O[C@@H]5CO[C@@H](C)O[C@H]5[C@H](O)[C@H]3O)[C@H]3COC(=O)[C@H]23)OCO4)cc(OC)c1O [Etoposide]
[1]; [5]
  Effect (of combination with SGN-40): Antagonistic. → Add.

## N[C@@H](Cc1ccc(N(CCCl)CCCl)cc1)C(=O)O [Melphalan]
[1]; [5]
  Effect (of combination with SGN-40): Additive
[1]; drug with cross-linked SGN-40, Ramos cells, listed as melphalan
  Effect (of combination with SGN-40): additive

## O=C1c2c(O)ccc(O)c2C(=O)c2c(NCCNCCO)ccc(NCCNCCO)c21 [Mitoxantrone]
[1]; [5]
  Effect (of combination with SGN-40): Syn. → Add.
[1]; drug with cross-linked SGN-40, Ramos cells, listed as mitoxantrone
  Effect (of combination with SGN-40): additive

## C[C@]12C=CC(=O)C=C1CC[C@@H]1[C@@H]2C(=O)C[C@@]2(C)[C@H]1CC[C@]2(O)C(=O)CO [prednisone]
[2]; CHOP single course, prednisone 0.15 mg/kg p.o. q1d x 5
  effect on tumor growth, administered alone: little effect
[2]; SGN-40 4 mg/kg i.p. q4d x 4 plus CHOP or prednisone
  efficacy in combination with humanized CD40 antibody (SGN-40): greater efficacy

## Bleomycin
[1]
  Effect (of combination with SGN-40): Synergistic

## TNFα
[1]
  Combination Index at ED50: 0.70
  Combination Index at ED75: 0.61
  Combination Index at ED90: 0.60
[1]; [5]
  Effect (of combination with SGN-40): Synergistic

B1: SGN-14 (parent murine antibody, donor) (antibody, V domains shown)
VH: EVQLQQSGPDLVKPGASVKISCKASGYSFTGYYIHWVKQSHGKSLEWIGRVIPNNGGTSYNQKFKGKAILTVDKSSSTAYMELRSLTSEDSAVYYCAREGIYWWGHGTTLTVS
VL: DVVVTQTPLSLPVSLGAQASISCRSSQSLVHSNGNTFLHWYLQKPGQSPKLLIYTVSNRFSGVPDRFSGSGSGTDFTLKISRVEAEDLGVYFCSQTTHVPWTFGGGTKLEIQR
notes: Murine monoclonal antibody; also called S2C6; murine CD40 donor antibody
[3]
  Binding Data 1: 1
  Binding Data 2: 1.33

B2: hu sgn-1 (antibody, V domains shown)
VH: EVQLVESGGGLVQPGGSLRLSCAASGYSFTGYYIHWVRQAPGKGLEWVARVIPNNGGTSYNQKFKGRFTISVDNSKNTLYLQMNSLRAEDTAVYYCAREGIYWWGQGTLVTVS
VL: DIQMTQSPSSLSASVGDRVTITCRSSQSLVHSNGNTFLHWYQQKPGKAPKLLIYTVSNRFSGVPSRFSGSGSGTDFTLTISSLQPEDFATYYCSQTTHVPWTFGQGTKVEIKR
[3]
  Binding Data 1: 23.6
  Binding Data 2: 19.3

B3: hu sgn-2 (antibody, V domains shown)
VH: B2 VH with V72R, N74K
VL: B2 VL
[3]
  Binding Data 1: 471
  Binding Data 2: 371

B4: hu sgn-4 (antibody, V domains shown)
VH: B2 VH with F68A, I70L, L79A
VL: B2 VL
[3]
  Binding Data 2: 2.46

B5: hu sgn-15 (antibody, V domains shown)
VH: B2 VH with F68A, L79A
VL: B2 VL
[3]
  Binding Data 2: 2.71

B6: hu sgn-17 (antibody, V domains shown)
VH: B2 VH with F68A, I70L, L79A
VL: B2 VL with I2V, M4V
[3]
  Binding Data 2: 3.56

B7: hu sgn-18 (antibody, V domains shown)
VH: B2 VH with F68A, I70L, L79A
VL: B2 VL with Y92F
[4]
  Binding Data 1: 0.96 and 0.67
  binding activity compared with the parent murine antibody: approaching that of the parent murine antibody; also recorded: more closely approaching that of the parent murine antibody
[3]
  Binding Data 2: 1.03

B8: hu sgn-22 (antibody, V domains shown)
VH: B2 VH with N55A, I70L, L79A
VL: B2 VL
[4]
  Binding Data 1: 1.44 and 1.41 and 1.80 and 0.93
  binding activity compared with the parent murine antibody: approaching that of the parent murine antibody
[3]
  Binding Data 2: 0.84

B9: hu sgn-23 (antibody, V domains shown)
VH: B2 VH with N55Q, I70L, L79A
VL: B2 VL
[4]
  binding activity compared with the parent murine antibody: approaching that of the parent murine antibody
[3]
  Binding Data 2: 0.9

B10: hu sgn-26 (antibody, V domains shown)
VH: B2 VH with N55A, I70L, L79A
VL: B2 VL with Y92F
[4]
  Binding Data 1: 1.02 and 1.06
  binding activity compared with the parent murine antibody: approaching that of the parent murine antibody; also recorded: more closely approaching that of the parent murine antibody; also recorded: best performance
[3]
  Binding Data 2: 0.92

B11: hu sgn-27 (antibody, V domains shown)
VH: B2 VH with N55Q, I70L, L79A
VL: B2 VL with Y92F
[4]
  Binding Data 1: 1.04 and 1.03 and 0.94 and 0.83
  binding activity compared with the parent murine antibody: approaching that of the parent murine antibody; also recorded: more closely approaching that of the parent murine antibody
[3]
  Binding Data 2: 1.4

B12: hu sgn-19: humanized CD40 antibody variant, heavy SEQ ID NO: 7, light SEQ ID NO: 16 (Y92F) (antibody, V domains shown)
VH: B2 VH with I70L, L79A
VL: B2 VL with Y92F
[4]
  binding activity compared with the parent murine antibody: approaching that of the parent murine antibody

B13: hu sgn-14: humanized CD40 antibody variant, heavy SEQ ID NO: 7 (I70L R72V L79A), light SEQ ID NO: 14 (antibody, V domains shown)
VH: B2 VH with I70L, L79A
VL: B2 VL
[4]
  Binding Data 1: 1/11 and 0.86 and 0.77
  Binding Data 2: 0.69 and 0.77

B14: hu sgn-16: humanized CD40 antibody variant, heavy SEQ ID NO: 9 (F68A I69L R72V), light SEQ ID NO: 14 (antibody, V domains shown)
VH: B2 VH with F68A, I70L
VL: B2 VL
[4]
  Binding Data 2: 1.82 and 1.83
